According to the domain aggregation screens of Martell et al. (2025):

assay: soluble fraction after stress (log2 fold change); higher = more stays soluble; pooled small domains, quantitative proteomics; details: stress: pH 4
How it was run: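 Aggregation propensity is read out as the fold change in how much of each domain remains soluble after acid stress. The custom small-domain libraries were pooled, held at pH 4 and analysed with high-throughput quantitative proteomics. On the log2 scale used, higher values mean more of the domain stayed soluble.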

Row | Sequence | soluble fraction (log2)
1 | HMSRFLEGILQRRAGGKNYFVPDDGSNPIFIADRNSAGAANGDRVRIAQFARRPRSGPEGEVVEILKRAK | 0.153
2 | HMSRGAIVTGTVIEKNQSGIYVDLGYKSDGIVPIEEFDGEESKYNVGDQIRVYVKKVDDGHGQLML | -0.135
3 | HMSRGTRIDPNWQPSPEDRALARAEGFSDPEIDREALQFRDYWLGASGSNAVKLDWSATWRNWVRRAATNF | -0.204
4 | HMSRKERERSQHRRDILAAGEKIFAQKGYFNATIEEIAREAEFSVGTIYNFFSNKETLYQEIIRSI | -0.43
5 | HMSRLQDAELQAQIDKMAGAMQLRDIPVYVQDIPTINGLAAPDGRVFITQGFIDKYKLGEVSAGEIASVI | 0.316
6 | HMSRPLISNMLRLLNLPPTVQRKVAAGVISAGHARALLGLNDEKEIEKLANRIVAEGLSVRATEEIVAIA | -1.28
7 | HMSRWHEFLNKSEDGMKELDEQNQKVLTLLILQRFYQTPFQAKEDEEFYREFFERLSSVNEILG | -0.283
8 | HMSSAYLTVRGIDIDVIYKDIKNLHIAVYPPFGRVRVAAPSHLDDDQVRLAVIQRLTWIKRQRERLRST | -0.336
9 | HMSSDEAEYKLLLGQEGVAKSPLRPSGVVDFSGRRLDVQTLGDFIESGETVVVKQVNGHRVLVERK | 0.0409
10 | HMSSDEEQLATLTRLLQKQEQIIQTLGPRNPMVSLQQYANTITKVIEMAGFKDTSQFINSQIP | -0.0429
11 | HMSSDLESVIGTHSQEANFALRSWGWIQPDETWKNLRPDQVSQILERANEFMAKAIESFANAQSE | -0.984
12 | HMSSDLLGVRVRRARARAGLTRRRLSLLSGVSERFLAQLESGQGNISIVLIRRVAAALGAELVELIGS | -0.0528
13 | HMSSEDTQSRDRARKELSNEMSRIMKRYGLDYQPRDNADDIMNRLKAAGADENTLAYVQEKLK | 0.0559
14 | HMSSEITYDKFIEMVDKDQVKEVTLQSGVLTVVPKIQKSYYQNASYKVNQMEDVDALTKRLEGTGIVFHY | 0.129
15 | HMSSEITYDKFIEMVEEGNVKEVTLQSDTLTIKPKHQDSAFSEKEYYTRQMESADQLTERLEGTGIEFHS | -0.642
16 | HMSSEQRSVLFPNLAETDKVAVIEALMAAGVNARVDSASGRVTVPSGDYYNSRAILAAQGLPTS | -0.175
17 | HMSSETTVPAVVGIKEDKARQLASEQGLRLRVKSREESADVEEGIIISQDPNSNTKVKKGDEIEVVVS | 0.32
18 | HMSSFSESFHKALNNLDDKHKSVFSLRHFEGFSMKEIAETLNINEGTVKSRLFYATKTLAGALKEF | -1.29
19 | HMSSGKTGTITLQPKQTVYGITKQYKISEADLRKLNPQLDSNLKIGDKITLPLDNIQRYSDSSSNVAQT | 0.22
20 | HMSSGLLTVQEQRILEHLANGERNGDIAGRLHISEGTVKWHLHNMYRKLDAATRTQAVARARALRL | -0.428
21 | HMSSIGERISDVRKARGYTQDQLAERIHVSRQTISHWENERALPDFESIKQLSQVLGYDFSS | 0.0836
22 | HMSSIHQDAKQQLHEYIRTYIQPLMRAGKQVTVWDIIGHVTIRKPKLVQKIGTQQLINMVQDLLE | -0.302
23 | HMSSKSDQLYLQLRRRISAMKDGEPFPTVRQLMTEYQVSQSTVTPAINQLKEKGLIEAYVGRGSFVSKK | 0.161
24 | HMSSKTKVEDLGLSTRTLNALIGGSIKTAGGLTRKSESDLLSLDGLGEKGITEIKEALENIGLSLK | 0.0218
25 | HMSSLKKISIDELSPGMYVHSIVEQKGSVKIKSQGKVLKQAVVDALRKRGVKTLLIDLSKQFNPETGEP | 0.346
26 | HMSSLTPRETEVLSRMAQGDANTSIAERLVITEKAVQKHINAIFAKLGLAEEPTSARRVLAVLAFLR | -0.407
27 | HMSSLTQREYEIAELVADGLSNKAIAAELSISHTTAARHVANIMNKLGFNSRSQIAAWVADRAQG | -0.46
28 | HMSSNLSLHKEGNKIVILGLEGKSVIEVYDLMGRLLSSQTNYNPKQEITLLQPVIIRVTDTQQTKSFKV | -0.132

Row | Sequence | soluble fraction (log2)
29 | HMSSNLTVFTRNNAIIVNSDVVRKLNVFAVDGRLVRSVDLSVGENVINNISRGMYLIDKQKVVV | ≥ 0.43
30 | HMSSPDMSLLYSELDVKDSGQIVTILEQRNIPYEVRNNGSQIYIPSNNVQRIRLSLAQEGLPSG | 0.152
31 | HMSSPTAKATGSSVNIRKSASTGAAVLKRVEKGTVLEAVSISDGWVKVKYSGVTGYVSADYVKVSGL | 0.154
32 | HMSSQGQNTKTGTVTASALYVRSGAGTNYSQIGYLLKNTKVEIVGQTGSWYKIKFGSGTGYVSSKYIK | 0.0256
33 | HMSSQLETTFATLIGKRVSIRLHDPEGGFRDILGHLESPYSLRNRHGNLIEFAHDQIFLWREVI | -1.18
34 | HMSSRNLIIFYDSPQAENALLATAERYGAILLHHYRNLHGIAVAIPADKDMAQAVTYFSRQPGVRQV | 0.103
35 | HMSSSKVAISQFEELVDQGQVREVVIEGSTATGTTAAGRRFAAEIPPGGMELFLSKLDDAGTTYEYSPP | 0.127
36 | HMSSSYTEMQLDKLKKLLEKETLLSSEKSELKSLIHDFDKIPEVVSPLIVGEYLRLKNKYIAVINSLE | -0.322
37 | HMSSSYTEMQLERFKELLNKETLLSSEKNELKNLISDFDKISEIVSPLVVGAYLQLKNEHIETINSLG | -0.846
38 | HMSSTAIQAMIRRLIDGEDPRKPLSDARLAETLKASGVPVARRTVAKYRESMSIPSSQDRLRI | 0.0607
39 | HMSSTSTKTQNIVHIVKSGETLSAIASKYGVSVDNIKKWNNLSSDKLSIGQKLKINPTTQTSS | -0.186
40 | HMSSVEEILQTLGGRIRTQRLAQGISQQVLADRAGLSLGAVRQLEGSGQSGLDTLVRVLFVLGIVDEL | -1.57
41 | HMSSVHTMEVKSTTQIKVLDENKNLSSYYSMKNPVSFNYRLFFLNQDELKKLQEDLKTNNDIQSIDIKYA | -0.944
42 | HMSTALTPLTTREREVLALMAEGLTNSGIAARLVLTDRTVETHVSRILHKLGLGETTTNEHRRVLAVLRYL | -0.716
43 | HMSTASPEELRQTPERRRLIEYLREHGGHGRTSEIAAALGIDDSTASRLLRRLADNGLIVRTQYGEYTLLQ | -0.0496
44 | HMSTEAVVMSSSVSVKSSPDKASTDLFVLHEGTKVRTVSELGDWREIVIADGKKGWVEARTIET | 0.151
45 | HMSTEPLALVGKTGIAATVLRPSGRIEVDDKYYDAVSLGAFIEKGEMVNIVKYENLQLYVAKL | -0.0114
46 | HMSTFAQNLRALMEKRGVSQNELARSAGLTQSAINKILTGKTKQPGIDTTEAIARVLNVSVAQLIYT | 0.22
47 | HMSTFTPYLVKVTTSVLNIRKGAGTNYGTNGSIRDMGTYTIVAEADGQGASKWGKLKSGAGWISLDYTKK | 0.184
48 | HMSTILERLIMLQEQSGMNQKQLQKELGLSNSAFSDWKKGKGRPSVEALVRFSEFFGVSMDWLAFG | -0.845
49 | HMSTKRQKELLEYVDRFITEHGYGPSYREIMNAIGYKSVSTVAIHIDGLIAKGYLRKRDNSARSLEVV | 0.249
50 | HMSTKYSSNIISLVKGLMEEDQYKDLMGPPLKKEIIKKVESITDTFPYKFDKDDKEFIVKKVLISLRK | 0.148
51 | HMSTLKSALDEIPGIGAARKRALLNHFGSTRVISSVGVKDLEQVEGVSKKIALLIYGYFHDK | ≥ 0.43
52 | HMSTLSIHIPDKFAGQRLDQALAELYSQFSRSRLQQWLNDGELLVDGKSVKANKKVLGGEFIQILK | -0.00612
53 | HMSTPENLGGRNTAKARISWLENGVKQELESDFPAAEVVKLSSRFGGEVPELTVIRPSLEDIYLKMIG | -0.269
54 | HMSTPLVATLRKRIIDGHYPPGERLAEIPVAEAFGVSRTPVRLAFRTLEQEGLLEKAGKRGYAVRA | 0.0231
55 | HMSTQVPDVKERSQEEARSILESAGFKVTPAVKTEDSADIAKDMVTKTDPAAGQSVPKGTTITIYVSS | 0.298
